Data reported in patent US20210115121A1 (UCB, published 2021).
Changes are numbered by the printed parent chain. Several values for one entry are separate records, joined by “and”; a condition that tells them apart may be missing. Identical values can stand only once.

How the values were obtained:
[1] = target: T1, Tau from human Alzheimer's disease brain (isolated Tau PHF fibrils from Alzheimer's disease patients) (human, UniProt P10636-8 2-441, limits assumed); assay: cell-based or functional assay
[2] = target: T2, tau peptide 234-250, N-acetyl-KSPSSAKSRLQTAPVPM-amide (human); assay: X-ray crystallography of the Fab/peptide co-complex
T2 peptide: Ac-KSPSSAKSRLQTAPVPM-NH2
Source text: We collected the x-ray diffraction data through a single L14H18 Fab/tau peptide 234-250 crystal. The crystal was suspended in a litho loop and flash frozen under liquid nitrogen, after briefly passing through a cryoprotectant solution containing 30% polyethylene glycol 4000, 0.2M calcium chloride, 0.1M HEPES buffer pH 7.5 and 10% ethylene glycol. The diffraction data was collected on a Pilatis 6M at the 104-1 beamline station at the Diamond synchrotron, Didcot, Oxfordshire, UK. The wavelength of the monochromatic x-ray beam was 0.92819A. The reciprocal space was sampled at 0.2° oscillation steps around the φ goniostat axis. The processed data XIA file provided from the synchrotron facility was used for structure determination
For model building the computer program Coot (Emsley P., Lohkamp B., Scott W. G., Cowton K. Acta Crystallography D Biol Crystallography, 2010 April; 66 (Pt 4): 486-501) was used. Refinement was carried out using the program REFMAC (Murshudov G. N., Skubak P., Lebedev A. A., Pannu N. S., Steiner R. A., Nicholls R. A., Winn M. D., Long F., Vagin A. A. Acta Crystallogr D Biol Crystallogr 2011 April; 67 (Pt 4): 355-67).
The interaction between antibody L14H18 and tau peptide, N-acetyl-[…]-amide (based on human tau isoform 2 sequence 234 to 250), was studied by x-ray crystallography using a co-complex prepared from L14H18 Fab fragment incubated with the peptide. […]

[3] = target: Tau from human progressive supranuclear palsy brain (human, UniProt P10636-8 2-441, limits assumed); assay: cell-based or functional assay
[4] = target: Tau from human frontotemporal dementia brain (human, UniProt P10636-8 2-441, limits assumed); assay: cell-based or functional assay
[5] = target: human Tau P301L from brain of P301L Tau transgenic mice (human, UniProt P10636-8 2-441, limits assumed); assay: cell-based or functional assay
[6] = target: T3, monomeric Tau isoform-2 expressed in E. coli (human, UniProt P10636 2-758); assay: SPR, Biacore T200, Tau amine-immobilised, mFab as analyte
T3 construct: also called Ecoli iso-2; E. coli Tau
Procedure: (§1) Absorption at 280 nm was used to determine the concentration of the Fab stock solutions for the BIAcore analysis. An insoluble Tau protein preparation from Alzheimer's disease patients (AD-PHF, fraction 11), the HEK-derived Tau isoform-2 monomers (amino acids 1-441), and the isoform-2 monomers expressed in E. coli were amine immobilized onto the CMS chip, and binding of anti-Tau mFabs was measured with the Biacore T200 instrument. The buffer HBS-EP from GE Healthcare was used for immobilizations apart from the AD-PHF for which 10 mM acetic acid (pH3.0) was used. The HBS-EP+buffer was supplemented with 300 mM NaCl and 1.25% CM-Dextran (Sigma) and used as the assay buffer. While flow cell (Fc) 1 was used as a reference, the following RU values were obtained for Fc2-4: 44 RU with 5 μg/ml E. coli Tau, 56 RU with 5 μg/m HEK Tau, and 500 RU with a 1:20 diluted solution of the AD-PHF material. Two 60 s cycles of 10 mM Glycine (pH1.7) were used for regeneration. Flow rates of 10 μl/min were used for immobilization and regeneration while a 30 μl/min flow rate was used for analyte binding. For AD-PHF, multiple manual injections were applied to reach 500 RU, including EDC/NHS and EtoA capping. Five start-up cycles and 12 cycles per mFab sample or buffer control were applied, using 90 μl analyte injections for either 180 s or 300 s for dissociation. 11 1:3 dilutions of a 600 nM solution plus buffer were used for each mFab. AB1 was analyzed using the BIAcore test.

[7] = target: T4, monomeric Tau isoform-2 derived from mammalian HEK293 cells (human, UniProt P10636 2-758); assay: as above
T4 construct: also called HEK iso-2; HEK Tau
Procedure: as §1

[8] = target: T1, Tau from human Alzheimer's disease …; assay: SPR, Biacore T200, AD-PHF fraction 11 amine-immobilised, mFab as analyte
Procedure: as §1

T3 sequence (P10636 other isoform, or with tags, fused parts or gaps limits assumed): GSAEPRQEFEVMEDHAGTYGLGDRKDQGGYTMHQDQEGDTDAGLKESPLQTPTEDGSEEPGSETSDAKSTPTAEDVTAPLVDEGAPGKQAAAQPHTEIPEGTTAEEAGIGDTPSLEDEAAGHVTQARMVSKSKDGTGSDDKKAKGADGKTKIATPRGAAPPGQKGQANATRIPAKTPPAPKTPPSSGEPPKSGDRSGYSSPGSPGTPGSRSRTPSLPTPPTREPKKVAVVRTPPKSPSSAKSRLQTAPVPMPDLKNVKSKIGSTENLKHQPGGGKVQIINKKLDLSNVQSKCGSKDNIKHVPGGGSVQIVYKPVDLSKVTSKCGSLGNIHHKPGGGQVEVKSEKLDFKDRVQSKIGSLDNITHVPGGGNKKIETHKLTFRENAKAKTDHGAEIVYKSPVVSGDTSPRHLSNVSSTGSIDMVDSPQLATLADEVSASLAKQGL
Chain of Tau from human frontotemporal dementia brain (P10636 other isoform, or with tags, fused parts or gaps limits assumed): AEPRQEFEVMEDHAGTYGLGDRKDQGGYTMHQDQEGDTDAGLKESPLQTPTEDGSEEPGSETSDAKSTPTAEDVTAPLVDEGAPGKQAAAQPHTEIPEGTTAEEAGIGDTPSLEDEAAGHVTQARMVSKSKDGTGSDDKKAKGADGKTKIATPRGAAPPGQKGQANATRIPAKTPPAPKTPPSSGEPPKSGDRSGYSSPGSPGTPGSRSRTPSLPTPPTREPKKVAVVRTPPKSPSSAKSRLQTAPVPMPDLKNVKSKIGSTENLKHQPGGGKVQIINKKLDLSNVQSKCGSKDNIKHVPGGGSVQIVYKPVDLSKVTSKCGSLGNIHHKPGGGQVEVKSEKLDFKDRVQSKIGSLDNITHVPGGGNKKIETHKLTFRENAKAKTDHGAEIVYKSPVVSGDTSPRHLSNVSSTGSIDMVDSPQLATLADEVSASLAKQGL
Chain of human Tau P301L from brain of P301L Tau transgenic mice (P10636 other isoform, or with tags, fused parts or gaps P301L P301L P301L P301L limits assumed): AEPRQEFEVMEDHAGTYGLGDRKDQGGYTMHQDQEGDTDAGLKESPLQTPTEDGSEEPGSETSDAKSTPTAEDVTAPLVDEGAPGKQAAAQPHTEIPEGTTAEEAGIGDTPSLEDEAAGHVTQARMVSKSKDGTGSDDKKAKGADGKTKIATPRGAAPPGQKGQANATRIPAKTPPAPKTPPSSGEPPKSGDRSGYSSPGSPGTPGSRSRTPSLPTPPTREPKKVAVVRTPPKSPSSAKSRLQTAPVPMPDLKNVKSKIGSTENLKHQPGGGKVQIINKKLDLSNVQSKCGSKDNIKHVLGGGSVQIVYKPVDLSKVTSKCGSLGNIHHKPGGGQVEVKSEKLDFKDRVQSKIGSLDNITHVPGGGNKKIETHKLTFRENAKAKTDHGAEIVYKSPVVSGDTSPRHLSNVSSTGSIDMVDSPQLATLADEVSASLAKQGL
Chain of Tau from human progressive supranuclear palsy brain (P10636 other isoform, or with tags, fused parts or gaps limits assumed): as the sequence (P10636 other isoform, or with tags, fused parts or gaps P301L P301L P301L P301L limits assumed) above, with L300P counted along it

B1: Tau-binding antibody having the light chain of SEQ ID No.: 14 and the heavy chain of SEQ ID No.:17 (antibody, human IgG4 S228P, kappa, V domains shown)
VH: EVQLQESGPGLVKPSETLSLTCTVSGFSLTSNDIAWIRQPPGKGLEWMGTIWTDGSTNYNAAVQSRVTISVDTSKNQFSLKLSSVTAADTAVYYCARHRLYYGAFDYWGQGTMVTVSS
VL: DIVMTQTPLSLSVTPGQPASISCRSSQSLEYSDGYTYLEWYLQKPGQSPQLLIYEVSNRFSGVPDRFSGSGSGTDFTLKISRVEAEDVGVYYCFQATHNPYTFGQGTKLEIKR
For B1, the “IC50 (cellular Tau aggregation assay)” value [1] was 11 nM and the “Imax (maximal efficacy at 300 nM, cellular Tau aggregation assay)” value (“Imax” below) [1] was 98%.

B2: L14H18 Fab (Fab, V domains shown)
VH: B1 VH with A61T
VL: B1 VL
notes: also called L14H18 Fab fragment; L14H18 Fab protein
B2: binds [2].

B3: Tau-binding antibody having the light chain of SEQ ID No.: 14 and the heavy chain of SEQ ID No.:18 (antibody, human IgG4 S228P, kappa, V domains shown)
VH: B1 VH with A61T
VL: B1 VL
B3 was tested, and the “IC50 (cellular Tau aggregation assay)” value [1] was 12 nM, the “Imax” value [1] was 98% and the “IC50 (cellular Tau aggregation assay)” value [3] was 42 nM. For the same binder, the “Imax” value [3] was 100%, the “IC50 (cellular Tau aggregation assay)” value [4] was 1 nM and the “Imax” value [4] was 99%.

B4: AB1 having a rat VL of SEQ ID NO: 7 and a rat VH of SEQ ID NO.:8 (antibody, IgG1, V domains shown)
VH: EVKLEESGPGLMQPSETLSLTCTVSGFSLTSNDIAWVRQPLGKGLVWMGTIWTDGSTNYNSAVQSRLSISRDTSKSQFFLKMNSLQPEDTGTYYCARHRLYYGAFDYWGQGTMVTVS
VL: DIVMTQTPVSLSVTLGDQASISCRSSQSLEYSDGYTYLEWYLQKPGQSPQLLIYEVSNRFSGVPDRFIGSGSGTDFTLKISRVEPEDLGVYYCFQATHNPYTFGAGTKLEIK
B4 was tested, and the “IC50 (cellular Tau aggregation assay)” value [1] was 4 nM, the “Imax” value [1] was 98% and the “IC50 (cellular Tau aggregation assay)” value [4] was 3 nM. For the same binder, the “Imax” value [4] was 97%, the “IC50 (cellular Tau aggregation assay)” value [5] was 30 nM and the “Imax” value [5] was 89%.

B5: mFab AB1 having a rat VL of SEQ ID No.: 7 and a rat VH of SEQ ID No.: 8 (Fab, V domains shown)
VH: B4 VH
VL: B4 VL
notes: also called AB1 Fab; anti-Tau mFab
For B5, the Kd [6] was 160 nM, the koff [6] was 0.011 s⁻¹ and the kon [6] was 69000 M⁻¹ s⁻¹ and 73000 M⁻¹ s⁻¹. The Kd [7] was 160 nM and 170 nM, the koff [7] was 0.011 s⁻¹ and the kon [7] was 70000 M⁻¹ s⁻¹ and 66000 M⁻¹ s⁻¹. The Kd [8] was 190 nM and 180 nM, the koff [8] was 0.0096 s⁻¹ and 0.008 s⁻¹ and the kon [8] was 52000 M⁻¹ s⁻¹ and 44000 M⁻¹ s⁻¹.
